The values below come from patent US20150337049A1 (Genmab, published 2015).

Where a chain is given by its changes, count along the chain named. Names and notes keep the numbering of the source.

For assay [1], the target named is T1, HER2 on HER2-positive AU565 cells (human, UniProt P04626 23-1255).
T1 construct: whole, on cells
The experiment in a line: FACS, AU565 cells. The procedure: Cells (1×10^5 cells/well) were incubated in polystyrene 96-well round-bottom plates (Greiner bio-one 650101) with serial dilutions of antibody preparations (range 2 to 10000 ng/mL in 4-fold dilutions for Jurkat cells and range 1 to 3000 ng/mL in 4-fold dilutions for on AU565 cells) in 100 μL PBS/0.1% BSA/0.02% azide at 4° C. for 30 min.
After washing twice in PBS/0.1% BSA/0.02% azide, cells were incubated in 100 μL with secondary antibody at 4° C. for 30 min. As a secondary antibody, R-Phycoerythrin (PE)-conjugated goat-anti-human IgG F(ab′)₂ (109-116-098, Jackson ImmunoResearch Laboratories, Inc., West Grove, Pa.) diluted 1/100 in PBS/0.1% BSA/0.02% azide, was used for all experiments. Next, cells were washed twice in PBS/0.1% BSA/0.02% azide, resuspended in 150 μL PBS/0.1% BSA/0.02% azide and analyzed on a FACS CantoII (BD Biosciences). Binding curves were analyzed using non-linear regression (sigmoidal dose-response with variable slope) using GraphPad Prism V5.04 software (GraphPad Software, San Diego, Calif., USA).

Assay [2] addresses T2, C1q (from 3% pooled human serum) (human, UniProt P02745 23-245; P02746 28-253; P02747 29-245).
T2 construct: Native C1q of pooled human serum, detected with rabbit anti-human C1q
The experiment in a line: ELISA, antibody coated, 3% pooled human serum, anti-C1q detection. The procedure: Plates were washed and blocked with PBS supplemented with 0.025% Tween 20 and 0.1% gelatine. […] Detection was performed by addition of 1 mg/mL 2,2′-azino-bis(3-ethylbenzothiazoline-6-sulfonic acid) (ABTS; Roche, Mannheim, Germany) for about 30 min. The reaction was stopped by the addition of 100 μL 2% oxalic acid. Absorbance was measured at 405 nm in a microplate reader (Biotek, Winooski, Vt.). Log transformed data were analyzed by fitting sigmoidal dose-response curves with variable slope using GraphPad Prism software.
A general note: An ELISA detects its analyte on a solid surface through an enzyme-linked reagent.

B1: bsIgG1-CD3×HER2-LALA (IgG1-huCLB-T3/4×HER2-169 with L234A/L235A) (bispecific antibody)
heavy 1: EVQLVESGGGLVKPGGSLRLSCAASGFTFSSYGMFWVRQAPGKGLEWVATISRYSRYIYYPDSVKGRFTISRDNAKNSLYLQMNSLRAEDTAVYYCARRPLYGSSPDYWGQGTLVTVSSASTKGPSVFPLAPSSKSTSGGTAALGCLVKDYFPEPVTVSWNSGALTSGVHTFPAVLQSSGLYSLSSVVTVPSSSLGTQTYICNVNHKPSNTKVDKRVEPKSCDKTHTCPPCPAPEAAGGPSVFLFPPKPKDTLMISRTPEVTCVVVDVSHEDPEVKFNWYVDGVEVHNAKTKPREEQYNSTYRVVSVLTVLHQDWLNGKEYKCKVSNKALPAPIEKTISKAKGQPREPQVYTLPPSREEMTKNQVSLTCLVKGFYPSDIAVEWESNGQPENNYKTTPPVLDSDGSFLLYSKLTVDKSRWQQGNVFSCSVMHEALHNHYTQKSLSLSPGK
VL 1: EIVLTQSPATLSLSPGERATLSCSASSSVTYVHWYQQKPGQAPRLLIYDTSKLASGIPARFSGSGSGTDFTLTISSLEPEDFAVYYCFQGSGYPLTFGSGTKLEMR
heavy 2: QVQLVQSGAEVKKPGASVKVSCKASGYTFTNYGISWVRQAPGQGLEWMGWLSAYSGNTIYAQKLQGRVTMTTDTSTTTAYMELRSLRSDDTAVYYCARDRIVVRPDYFDYWGQGTLVTVSSASTKGPSVFPLAPSSKSTSGGTAALGCLVKDYFPEPVTVSWNSGALTSGVHTFPAVLQSSGLYSLSSVVTVPSSSLGTQTYICNVNHKPSNTKVDKRVEPKSCDKTHTCPPCPAPEAAGGPSVFLFPPKPKDTLMISRTPEVTCVVVDVSHEDPEVKFNWYVDGVEVHNAKTKPREEQYNSTYRVVSVLTVLHQDWLNGKEYKCKVSNKALPAPIEKTISKAKGQPREPQVYTLPPSREEMTKNQVSLTCLVKGFYPSDIAVEWESNGQPENNYKTTPPVLDSDGSFFLYSRLTVDKSRWQQGNVFSCSVMHEALHNHYTQKSLSLSPGK
VL 2: EIVLTQSPATLSLSPGERATLSCRASQSVSSYLAWYQQKPGQAPRLLIYDASNRATGIPARFSGSGSGTDFTLTISSLEPEDFAVYYCQQRSNWPRTFGQGTKVEIK
In the case of B1, the binding result in assay [1] was “binds”; in assay [2], “no binding (tested: coated at 7-30000 ng/mL)”.

B2: bsIgG1-CD3×HER2-LFLEDA (IgG1-huCLB-T3/4×HER2-169 with L234F/L235E/D265A) (bispecific antibody)
heavy 1: B1 heavy 1 with A236F, A237E, D267A
VL 1: B1 VL 1
heavy 2: B1 heavy 2 with A238F, A239E, D269A
VL 2: B1 VL 2
notes: also called huCLB-T3/4×HER2-LFLEDA; copies: 1 + 1 + 1 + 1
As to B2, the binding result is “binds” in assay [1] and “no binding (tested: coated at 7-30000 ng/mL)” in assay [2].

B3: bsIgG1-CD3×HER2-LFLE (IgG1-huCLB-T3/4×HER2-169 with L234F/L235E) (bispecific antibody)
heavy 1: B1 heavy 1 with A236F, A237E
VL 1: B1 VL 1
heavy 2: B1 heavy 2 with A238F, A239E
VL 2: B1 VL 2
Consider B3, for which the binding result is “binds” in assay [1] and “no binding (tested: coated at 7-30000 ng/mL)” in assay [2].

B4: bsIgG1-CD3×HER2-LFLENQ (IgG1-huCLB-T3/4×HER2-169 with L234F/L235E/N297Q) (bispecific antibody)
heavy 1: B1 heavy 1 with A236F, A237E, N299Q
VL 1: B1 VL 1
heavy 2: B1 heavy 2 with A238F, A239E, N301Q
VL 2: B1 VL 2
Regarding B4, the binding result is “binds” in assay [1] and “no binding (tested: coated at 7-30000 ng/mL)” in assay [2].

B5: bsIgG1-CD3×HER2-… (IgG1-huCLB-T3/4×HER2-169 with L234F/L235E/D265A/N297Q/P331S) (bispecific antibody)
heavy 1: B1 heavy 1 with A236F, A237E, D267A, N299Q, P333S
VL 1: B1 VL 1
heavy 2: B1 heavy 2 with A238F, A239E, D269A, N301Q, P335S
VL 2: B1 VL 2
For B5, the binding result in assay [1] is “binds”; in assay [2], “no binding (tested: coated at 7-30000 ng/mL)”.

B6: bsIgG1-CD3×HER2-LFLEPS (IgG1-huCLB-T3/4×HER2-169 with L234F/L235E/P331S) (bispecific antibody)
heavy 1: B1 heavy 1 with A236F, A237E, P333S
VL 1: B1 VL 1
heavy 2: B1 heavy 2 with A238F, A239E, P335S
VL 2: B1 VL 2
In the case of B6, the binding result in assay [1] is “binds”; in assay [2], “no binding (tested: coated at 7-30000 ng/mL)”.

B7: bsIgG1-CD3×HER2-N297Q (IgG1-huCLB-T3/4×HER2-169 with N297Q) (bispecific antibody)
heavy 1: not shown
VL 1: B1 VL 1
heavy 2: not shown
VL 2: B1 VL 2
notes: also called NQ
B7: the binding result was “binds” in assay [1] and “no binding (tested: coated at 7-30000 ng/mL)” in assay [2].
